Data: PMC6613617, “Human DNA polymerase delta requires an iron–sulfur cluster for high-fidelity DNA synthesis”

Experiments:
[1] = target: T1, POLD1-CS;POLD2;POLD3;POLD4 (Homo sapiens;Homo sapiens;Homo …, UniProt P28340;P49005;Q15054;Q9HCU8 1-1107;1-469;1-466;1-107, C1076S|||); assay: EMSA; without PCNA; no defect; EMSA: 20 mM Tris-HCl pH 8.0, 20 mM KCl, 1 mM EDTA, 0.5 mM TCEP, 20 nM probe, 10-80 nM Pol delta, 25 C 30 min; 7% native PAGE, 0.5x TBE; conditions: protein: recombinant;recombinant;recombinant;recombinant; copies: 1;1;1;1; label: 5'-fluorescein (FAM); single strand
[2] = target: T2, POLD1-CS;POLD2;POLD3;POLD4;PCNA (Homo sapiens;Homo sapiens;Homo …, UniProt P28340;P49005;Q15054;Q9HCU8;P12004 1-1107;1-469;1-466;1-107;1-261, C1076S||||); assay: EMSA; copurified with PCNA; no defect; EMSA: 20 mM Tris-HCl pH 8.0, 20 mM KCl, 1 mM EDTA, 0.5 mM TCEP, 20 nM probe, 10-80 nM Pol delta, 25 C 30 min; 7% native PAGE, 0.5x TBE; conditions: protein: recombinant;recombinant;recombinant;recombinant;recombinant; copies: 1;1;1;1;3; label: 5'-fluorescein (FAM); single strand
[3] = target: T3, POLD1-HW;POLD2;POLD3;POLD4 (Homo sapiens;Homo sapiens;Homo …, UniProt P28340;P49005;Q15054;Q9HCU8 1-1107;1-469;1-466;1-107, H1066W|||); assay: EMSA; without PCNA; not impaired; EMSA: 20 mM Tris-HCl pH 8.0, 20 mM KCl, 1 mM EDTA, 0.5 mM TCEP, 20 nM probe, 10-80 nM Pol delta, 25 C 30 min; 7% native PAGE, 0.5x TBE; conditions: protein: recombinant;recombinant;recombinant;recombinant; copies: 1;1;1;1; label: 5'-fluorescein (FAM) on strand 1; blunt; one unpaired A in strand 2 as printed
[4] = target: T4, POLD1-HY;POLD2;POLD3;POLD4 (Homo sapiens;Homo sapiens;Homo …, UniProt P28340;P49005;Q15054;Q9HCU8 1-1107;1-469;1-466;1-107, H1066Y|||); assay: as above; conditions: protein: recombinant;recombinant;recombinant;recombinant; copies: 1;1;1;1; label: 5'-fluorescein (FAM) on strand 1; blunt; one unpaired A in strand 2 as printed
[5] = target: T2, POLD1-CS;POLD2;POLD3;POLD4;PCNA; assay: EMSA; copurified with PCNA; defect alleviated; EMSA: 20 mM Tris-HCl pH 8.0, 20 mM KCl, 1 mM EDTA, 0.5 mM TCEP, 20 nM probe, 10-80 nM Pol delta, 25 C 30 min; 7% native PAGE, 0.5x TBE; conditions: protein: recombinant;recombinant;recombinant;recombinant;recombinant; copies: 1;1;1;1;3; label: 5'-fluorescein (FAM) on strand 1; blunt; one unpaired A in strand 2 as printed
[6] = target: POLD1 WT (catalytic subunit of Pol delta);POLD2;POLD3;POLD4;PCNA (Homo sapiens;Homo sapiens;Homo …, UniProt P28340;P49005;Q15054;Q9HCU8;P12004 1-1107;1-469;1-466;1-107;1-261, ||||); assay: EMSA; copurified with PCNA; EMSA: 20 mM Tris-HCl pH 8.0, 20 mM KCl, 1 mM EDTA, 0.5 mM TCEP, 20 nM probe, 10-80 nM Pol delta, 25 C 30 min; 7% native PAGE, 0.5x TBE; conditions: protein: recombinant;recombinant;recombinant;recombinant;recombinant; copies: 1;1;1;1;3; label: 5'-fluorescein (FAM) on strand 1; 5' overhang 16 nt on template strand 2; one unpaired A in strand 2 as printed
[7] = target: POLD1-HW;POLD2;POLD3;POLD4;PCNA (Homo sapiens;Homo sapiens;Homo …, UniProt P28340;P49005;Q15054;Q9HCU8;P12004 1-1107;1-469;1-466;1-107;1-261, H1066W||||); assay: as above; conditions: protein: recombinant;recombinant;recombinant;recombinant;recombinant; copies: 1;1;1;1;3; label: 5'-fluorescein (FAM) on strand 1; 5' overhang 16 nt on template strand 2; one unpaired A in strand 2 as printed
[8] = target: POLD1-HY;POLD2;POLD3;POLD4;PCNA (Homo sapiens;Homo sapiens;Homo …, UniProt P28340;P49005;Q15054;Q9HCU8;P12004 1-1107;1-469;1-466;1-107;1-261, H1066Y||||); assay: as above; conditions: protein: recombinant;recombinant;recombinant;recombinant;recombinant; copies: 1;1;1;1;3; label: 5'-fluorescein (FAM) on strand 1; 5' overhang 16 nt on template strand 2; one unpaired A in strand 2 as printed
[9] = target: T3, POLD1-HW;POLD2;POLD3;POLD4; assay: EMSA; without PCNA; EMSA: 20 mM Tris-HCl pH 8.0, 20 mM KCl, 1 mM EDTA, 0.5 mM TCEP, 20 nM probe, 10-80 nM Pol delta, 25 C 30 min; 7% native PAGE, 0.5x TBE; conditions: protein: recombinant;recombinant;recombinant;recombinant; copies: 1;1;1;1; label: 5'-fluorescein (FAM) on strand 1; 5' overhang 16 nt on template strand 2; one unpaired A in strand 2 as printed
[10] = target: T4, POLD1-HY;POLD2;POLD3;POLD4; assay: as above; conditions: protein: recombinant;recombinant;recombinant;recombinant; copies: 1;1;1;1; label: 5'-fluorescein (FAM) on strand 1; 5' overhang 16 nt on template strand 2; one unpaired A in strand 2 as printed
[11] = target: POLD1 WT (catalytic subunit of Pol delta);POLD2;POLD3;POLD4 (Homo sapiens;Homo sapiens;Homo …, UniProt P28340;P49005;Q15054;Q9HCU8 1-1107;1-469;1-466;1-107, |||); assay: as above; conditions: protein: recombinant;recombinant;recombinant;recombinant; copies: 1;1;1;1; label: 5'-fluorescein (FAM) on strand 1; 5' overhang 16 nt on template strand 2; one unpaired A in strand 2 as printed
[12] = target: T2, POLD1-CS;POLD2;POLD3;POLD4;PCNA; assay: EMSA; copurified with PCNA; less second (super-shifted) band than WT; EMSA: 20 mM Tris-HCl pH 8.0, 20 mM KCl, 1 mM EDTA, 0.5 mM TCEP, 20 nM probe, 10-80 nM Pol delta, 25 C 30 min; 7% native PAGE, 0.5x TBE; conditions: protein: recombinant;recombinant;recombinant;recombinant;recombinant; copies: 1;1;1;1;3; label: 5'-fluorescein (FAM) on strand 1; 5' overhang 16 nt on template strand 2; one unpaired A in strand 2 as printed
[13] = target: T1, POLD1-CS;POLD2;POLD3;POLD4; assay: EMSA; without PCNA; less second (super-shifted) band than WT; EMSA: 20 mM Tris-HCl pH 8.0, 20 mM KCl, 1 mM EDTA, 0.5 mM TCEP, 20 nM probe, 10-80 nM Pol delta, 25 C 30 min; 7% native PAGE, 0.5x TBE; conditions: protein: recombinant;recombinant;recombinant;recombinant; copies: 1;1;1;1; label: 5'-fluorescein (FAM) on strand 1; 5' overhang 16 nt on template strand 2; one unpaired A in strand 2 as printed

Measured: binding result

T4 sequence (P28340 whole entry H1066Y, chain 1 of 4): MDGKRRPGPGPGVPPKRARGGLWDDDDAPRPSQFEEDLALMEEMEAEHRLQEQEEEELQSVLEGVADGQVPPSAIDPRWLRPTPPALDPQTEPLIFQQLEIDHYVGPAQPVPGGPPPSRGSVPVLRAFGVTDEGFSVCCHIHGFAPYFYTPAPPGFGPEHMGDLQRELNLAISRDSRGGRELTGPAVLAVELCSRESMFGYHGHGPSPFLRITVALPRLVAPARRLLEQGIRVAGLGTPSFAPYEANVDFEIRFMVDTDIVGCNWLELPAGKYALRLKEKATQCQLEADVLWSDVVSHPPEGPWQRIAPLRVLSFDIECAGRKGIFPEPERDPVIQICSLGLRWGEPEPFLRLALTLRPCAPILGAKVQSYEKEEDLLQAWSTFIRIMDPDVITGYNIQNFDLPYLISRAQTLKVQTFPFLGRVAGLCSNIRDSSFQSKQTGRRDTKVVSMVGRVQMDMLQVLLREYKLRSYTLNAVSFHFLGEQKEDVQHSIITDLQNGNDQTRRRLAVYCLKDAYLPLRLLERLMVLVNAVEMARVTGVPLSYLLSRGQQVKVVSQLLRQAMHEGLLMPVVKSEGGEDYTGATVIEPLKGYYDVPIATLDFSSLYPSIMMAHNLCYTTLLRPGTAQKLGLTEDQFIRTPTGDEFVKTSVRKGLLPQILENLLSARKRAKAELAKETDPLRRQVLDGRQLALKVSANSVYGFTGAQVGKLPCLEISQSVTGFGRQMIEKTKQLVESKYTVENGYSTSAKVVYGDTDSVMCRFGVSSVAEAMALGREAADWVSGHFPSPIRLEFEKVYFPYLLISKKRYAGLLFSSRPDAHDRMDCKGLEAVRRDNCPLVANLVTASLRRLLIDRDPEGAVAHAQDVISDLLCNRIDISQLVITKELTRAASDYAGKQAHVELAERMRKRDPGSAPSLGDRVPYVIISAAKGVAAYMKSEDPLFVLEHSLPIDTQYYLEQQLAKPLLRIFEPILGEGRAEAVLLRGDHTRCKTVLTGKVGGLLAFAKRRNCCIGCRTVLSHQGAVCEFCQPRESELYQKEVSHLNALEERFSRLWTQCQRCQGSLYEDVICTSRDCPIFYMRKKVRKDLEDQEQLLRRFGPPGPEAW
T4 sequence (P49005 whole entry, chain 2 of 4): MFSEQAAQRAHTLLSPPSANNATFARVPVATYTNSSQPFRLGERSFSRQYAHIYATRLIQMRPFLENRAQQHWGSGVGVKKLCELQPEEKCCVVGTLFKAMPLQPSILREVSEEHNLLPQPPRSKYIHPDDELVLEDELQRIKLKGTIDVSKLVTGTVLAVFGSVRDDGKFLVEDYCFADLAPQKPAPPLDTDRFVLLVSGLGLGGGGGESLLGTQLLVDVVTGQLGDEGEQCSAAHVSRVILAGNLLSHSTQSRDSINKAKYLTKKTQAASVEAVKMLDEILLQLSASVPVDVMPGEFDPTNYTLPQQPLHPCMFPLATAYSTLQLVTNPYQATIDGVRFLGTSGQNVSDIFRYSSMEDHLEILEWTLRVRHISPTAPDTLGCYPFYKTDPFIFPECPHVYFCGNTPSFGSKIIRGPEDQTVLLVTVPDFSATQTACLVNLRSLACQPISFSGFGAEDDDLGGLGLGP
T4 sequence (Q15054 whole entry, chain 3 of 4): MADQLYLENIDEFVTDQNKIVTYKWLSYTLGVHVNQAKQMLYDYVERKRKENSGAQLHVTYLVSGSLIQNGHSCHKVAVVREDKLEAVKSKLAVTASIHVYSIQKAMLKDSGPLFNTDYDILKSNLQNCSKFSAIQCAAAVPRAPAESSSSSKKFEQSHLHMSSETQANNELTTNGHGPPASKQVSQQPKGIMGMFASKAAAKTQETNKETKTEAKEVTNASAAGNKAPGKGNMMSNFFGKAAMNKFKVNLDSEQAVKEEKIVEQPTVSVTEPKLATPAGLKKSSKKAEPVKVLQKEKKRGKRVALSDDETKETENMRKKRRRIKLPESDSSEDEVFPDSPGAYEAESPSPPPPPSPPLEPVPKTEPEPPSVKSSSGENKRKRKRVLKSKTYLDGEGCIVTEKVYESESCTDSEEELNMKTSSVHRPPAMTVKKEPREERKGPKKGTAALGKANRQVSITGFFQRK
T4 sequence (Q9HCU8 whole entry, chain 4 of 4): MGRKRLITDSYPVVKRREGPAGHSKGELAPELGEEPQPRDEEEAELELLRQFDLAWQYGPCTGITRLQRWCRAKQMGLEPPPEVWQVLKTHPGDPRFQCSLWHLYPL
T3 sequence (P28340 whole entry H1066W, chain 1 of 4): as the sequence (P28340 whole entry H1066Y, chain 1 of 4) above, with Y1066W counted along it
T3 sequence (P49005 whole entry, chain 2 of 4): as the sequence (P49005 whole entry, chain 2 of 4) above
T3 sequence (Q15054 whole entry, chain 3 of 4): as the sequence (Q15054 whole entry, chain 3 of 4) above
T3 sequence (Q9HCU8 whole entry, chain 4 of 4): as the sequence (Q9HCU8 whole entry, chain 4 of 4) above
T1 sequence (P28340 whole entry C1076S, chain 1 of 4): as the sequence (P28340 whole entry H1066Y, chain 1 of 4) above, with Y1066H, C1076S counted along it
T1 sequence (P49005 whole entry, chain 2 of 4): as the sequence (P49005 whole entry, chain 2 of 4) above
T1 sequence (Q15054 whole entry, chain 3 of 4): as the sequence (Q15054 whole entry, chain 3 of 4) above
T1 sequence (Q9HCU8 whole entry, chain 4 of 4): as the sequence (Q9HCU8 whole entry, chain 4 of 4) above
Sequence of POLD1 WT (catalytic subunit of Pol delta);POLD2;POLD3;POLD4 (P28340 whole entry, stated change not applied, chain 1 of 4): as the sequence (P28340 whole entry H1066Y, chain 1 of 4) above, with Y1066H counted along it
Sequence of POLD1 WT (catalytic subunit of Pol delta);POLD2;POLD3;POLD4 (P49005 whole entry, stated change not applied, chain 2 of 4): as the sequence (P49005 whole entry, chain 2 of 4) above
Sequence of POLD1 WT (catalytic subunit of Pol delta);POLD2;POLD3;POLD4 (Q15054 whole entry, stated change not applied, chain 3 of 4): as the sequence (Q15054 whole entry, chain 3 of 4) above
Sequence of POLD1 WT (catalytic subunit of Pol delta);POLD2;POLD3;POLD4 (Q9HCU8 whole entry, stated change not applied, chain 4 of 4): as the sequence (Q9HCU8 whole entry, chain 4 of 4) above

GTTTCTTCAATCTTCATCATACAGGTCAG (ssDNA) [ssDNA probe (Fig 3E,F)]
binds: [1] | [2]

B1: dsDNA probe (Fig 3C,D) (dsDNA)
DNA 1: GTTTCTTCAATCTTCATCATACAGGTCAG
DNA 2: CTGACCTGTATGATGAAGATTGAAAGAAAC
binds: [3] | [4] | [5]

B2: primer-template (Fig 3A,B) (mixed)
DNA 1: GTTTCTTCAATCTTCATCATACAGGTCAG
DNA 2: CTCGTCAGCATCTCGTCTGACCTGTATGATGAAGATTGAAAGAAAC
not listed: [1] | [2] | [3] | [4] | [5]
binds: all other assays above
